Reference: the supplement of paper PMC6757056
± gives the standard deviation of the averaged measurements.

B1: library; a variant is named by its letters at N, in order (parent)
chain: GCUGUCACCGGUGUAUUACCCUAGUGGUCGACCGGUCUGAUGAGUCUNNNNNNAGACGAAACAGC

Legend:
hypoxanthine [1] = variants of: B1; experiment: FACS-Seq fitted mean relative fluorescence mCherry/BFP without ligand (log10 relative fluorescence); ligand: hypoxanthine (xanthine aptamer); higher = higher reporter protein expression; details: HEK293T, ligand present: no
Outline: (§1)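 Fluorescence comes from a normal fit to bin counts, normalized against controls. HEK293T libraries lentivirally given a ribozyme-switch mCherry reporter and an EF1α-BFP marker were enriched, incubated 48 h with or without ligand, and sorted by mCherry/BFP into 6 bins. Bin genomic DNA was PCR-amplified, barcoded and sequenced on MiSeq. The log10(mCherry/BFP) mean was scaled to five spiked-in control ribozymes.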

hypoxanthine [2] = variants of: B1; experiment: normalized RNA/DNA level with ligand (relative to sTRSVctl = 100) (log10 (% of sTRSVctl)); ligand: hypoxanthine (xanthine aptamer); higher = less ribozyme self-cleavage, higher mRNA level; details: ligand concentration (+) RNA-Seq: 5 mM, HEK293T, reporter: mCherry (pCS4076), ligand present: yes
Outline: (§2)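 For each 6-well well, 4 µg of library plasmid encoding mCherry-linked ribozyme switches, or eGFP-linked ones in some ligand experiments, was transfected into HEK293T. Any ligand was added 1 h before transfection, and RNA was extracted with EDTA 72 h after it, then reverse-transcribed, amplified, barcoded and sequenced. RNA level was obtained by dividing RNA reads by DNA reads, normalizing to a spiked-in non-cleaving sequence or to the top sequences, then scaling and log-transforming. The top set was 25 sequences, scaling was ×100 with log10, and ≥100 DNA reads were required.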

hypoxanthine [3] = variants of: B1; experiment: normalized RNA/DNA level without ligand (relative to sTRSVctl = 100) (log10 (% of sTRSVctl)); ligand: hypoxanthine (xanthine aptamer); higher = less ribozyme self-cleavage, higher mRNA level; details: HEK293T, reporter: mCherry (pCS4076), ligand present: no
Outline: as §2

hypoxanthine [4] = variants of: B1; experiment: FACS-Seq fitted mean relative fluorescence mCherry/BFP with ligand (log10 relative fluorescence); ligand: hypoxanthine (xanthine aptamer); ligand concentration (+) FACS-Seq: 5 mM; higher = higher reporter protein expression; details: HEK293T, ligand present: yes
Outline: as §1

Variant | FACS-Seq fitted mean (log10) (hypoxanthine [1]) | normalized RNA/DNA level with ligand (log10) (hypoxanthine [2]) | normalized RNA/DNA level without ligand (log10) (hypoxanthine [3]) | FACS-Seq fitted mean (log10) (hypoxanthine [4])
GUCGAC | 0.245 ± 0.035 | 1.92 ± 0.031 | 1.68 ± 0.033 | 0.428 ± 0.1
GUCGAA | 0.322 ± 0.039 | 1.92 ± 0.034 | 1.69 ± 0.021 | 0.22 ± 0.072
GUCGAG | 0.248 ± 0.065 | 1.81 ± 0.062 | 1.41 ± 0.072 | 0.65 ± 0.073
CUGCAG | 0.429 ± 0.068 | 1.96 ± 0.02 | 1.73 ± 0.066 | 0.677 ± 0.016
AUGGGA | 0.29 ± 0.013 | 1.89 ± 0.043 | 1.56 ± 0.08 | 0.592 ± 0.042
CUCUGC | -0.384 ± 0.044 | 1.892 ± 0.0033 | 1.882 ± 0.0062 | -0.335 ± 0.067
GUCGCA | 0.304 ± 0.021 | 1.94 ± 0.037 | 1.788 ± 0.0024 | 0.56 ± 0.0098
UUCUGG | 0.955 ± 0.026 | 1.931 ± 0.0039 | 1.8 ± 0.023 | 0.764 ± 0.068
UUGGCG | 0.088 ± 0.024 | 2.01 ± 0.034 | 1.87 ± 0.037 | 0.648 ± 0.069
CUGAGG | 0.424 ± 0.071 | 1.91 ± 0.03 | 1.58 ± 0.025 | 0.466 ± 0.031
CUGAGA | 0.665 ± 0.033 | 1.93 ± 0.036 | 1.77 ± 0.058 | 0.753 ± 0.0013
AUGGAG | 0.0698 ± 0.0056 | 1.71 ± 0.037 | 1.208 ± 0.011 | 0.604 ± 0.023
AUGGAC | 0.677 ± 0.01 | 1.8884 ± 0.00037 | 1.68 ± 0.028 | 0.843 ± 0.058
AUGGAA | 0.751 ± 0.027 | 1.88 ± 0.044 | 1.65 ± 0.043 | 0.749 ± 0.042
CUCGAA | 0.449 ± 0.073 | 1.92 ± 0.068 | 1.75 ± 0.037 | 0.395 ± 0.041
CUCGAU | 0.5204 ± 0.0026 | 1.93 ± 0.017 | 1.83 ± 0.081 | 0.642 ± 0.061
AUGAUA | -0.373 ± 0.027 | 1.9 ± 0.036 | 1.736 ± 0.013 | -0.00691 ± 0.00025
AUGAUG | -0.144 ± 0.025 | 1.794 ± 0.0069 | 1.32 ± 0.027 | 0.458 ± 0.12

Variant | FACS-Seq fitted mean (log10) (hypoxanthine [1]) | normalized RNA/DNA level with ligand (log10) (hypoxanthine [2]) | normalized RNA/DNA level without ligand (log10) (hypoxanthine [3]) | FACS-Seq fitted mean (log10) (hypoxanthine [4])
UUGAGG | 0.402 ± 0.054 | 1.98 ± 0.027 | 1.7199 ± 0.00097 | 0.578 ± 0.02
UUGAGC | 0.0741 ± 0.098 | 1.977 ± 0.003 | 1.89 ± 0.025 | 0.129 ± 0.018
UUGAGA | 0.452 ± 0.082 | 1.96 ± 0.015 | 1.53 ± 0.067 | 0.649 ± 0.057
AUCUGG | 0.338 ± 0.0078 | 1.84 ± 0.023 | 1.426 ± 0.0099 | 0.609 ± 0.05
AUCUGA | 0.724 ± 0.047 | 1.96 ± 0.049 | 1.83 ± 0.045 | 0.684 ± 0.016
UUCUCG | 0.24 ± 0.0079 | 2.01 ± 0.034 | 1.854 ± 0.0077 | 0.362 ± 0.0084
UUGCUU | 0.227 ± 0.004 | 1.98 ± 0.042 | 1.94 ± 0.044 | 0.0746 ± 0.042
CUGACC | 0.127 ± 0.042 | 1.99 ± 0.037 | 1.91 ± 0.026 | 0.416 ± 0.008
CUGACA | 0.453 ± 0.025 | 1.89 ± 0.0074 | 1.821 ± 0.017 | 0.522 ± 0.12
UUCGCA | 0.4682 ± 0.0031 | 1.95 ± 0.051 | 1.86 ± 0.067 | 0.512 ± 0.038
UUGAUA | 0.161 ± 0.022 | 1.93 ± 0.047 | 1.806 ± 0.01 | 0.277 ± 0.015
AUCCGC | 0.3452 ± 0.0029 | 1.931 ± 0.011 | 1.8 ± 0.024 | 0.517 ± 0.049
AUCCGA | 0.296 ± 0.067 | 1.92 ± 0.014 | 1.758 ± 0.012 | 0.5594 ± 0.0019
CUCCAU | -0.247 ± 0.08 | 1.96 ± 0.023 | 1.8932 ± 0.0013 | 0.134 ± 0.038
UUCCCG | 0.397 ± 0.063 | 1.919 ± 0.0045 | 1.83 ± 0.046 | 0.514 ± 0.064
CUGUAU | 0.503 ± 0.018 | 1.899 ± 0.013 | 1.82 ± 0.043 | 0.384 ± 0.08
AUGCUA | 0.499 ± 0.086 | 1.966 ± 0.0068 | 1.788 ± 0.0045 | 0.706 ± 0.029
